Changes are numbered by the printed parent chain.
Legend:
xCas12i-E875R = biological target: T1, xCas12i-E875R (E875R); assay: cell_activity; RuvC catalytic residue; cleavage readout; conditions: tags: NLS
T1 chain: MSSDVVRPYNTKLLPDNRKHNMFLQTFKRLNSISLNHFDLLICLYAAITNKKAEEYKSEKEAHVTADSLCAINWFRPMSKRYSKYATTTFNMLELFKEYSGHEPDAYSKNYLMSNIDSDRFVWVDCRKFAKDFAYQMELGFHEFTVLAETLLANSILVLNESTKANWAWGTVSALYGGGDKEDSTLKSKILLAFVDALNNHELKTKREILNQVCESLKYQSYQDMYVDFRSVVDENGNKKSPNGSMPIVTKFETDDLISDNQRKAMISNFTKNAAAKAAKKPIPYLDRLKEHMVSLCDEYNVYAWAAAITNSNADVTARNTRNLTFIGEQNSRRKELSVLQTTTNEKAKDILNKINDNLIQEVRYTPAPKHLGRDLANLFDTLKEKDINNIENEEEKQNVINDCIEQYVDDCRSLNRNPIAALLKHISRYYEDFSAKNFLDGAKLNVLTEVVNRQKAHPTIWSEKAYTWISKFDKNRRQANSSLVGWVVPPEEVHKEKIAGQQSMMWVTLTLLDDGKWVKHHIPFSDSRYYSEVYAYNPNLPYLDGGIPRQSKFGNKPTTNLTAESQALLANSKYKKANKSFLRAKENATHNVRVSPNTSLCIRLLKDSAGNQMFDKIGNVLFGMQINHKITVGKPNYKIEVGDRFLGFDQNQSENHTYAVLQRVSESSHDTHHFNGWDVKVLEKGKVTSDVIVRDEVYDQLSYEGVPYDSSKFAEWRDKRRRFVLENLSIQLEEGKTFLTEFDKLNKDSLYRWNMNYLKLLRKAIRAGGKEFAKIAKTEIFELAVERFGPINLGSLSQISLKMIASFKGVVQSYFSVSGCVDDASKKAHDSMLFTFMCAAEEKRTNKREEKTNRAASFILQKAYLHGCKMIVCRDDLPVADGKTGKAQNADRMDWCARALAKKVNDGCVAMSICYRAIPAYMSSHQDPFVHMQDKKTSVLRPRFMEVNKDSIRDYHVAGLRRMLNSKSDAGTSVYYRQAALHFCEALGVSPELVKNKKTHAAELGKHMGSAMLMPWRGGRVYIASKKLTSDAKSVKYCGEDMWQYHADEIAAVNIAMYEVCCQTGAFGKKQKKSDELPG
From the text: (§1) To vary xCas12i's dsDNA cleavage activity and/or expand its scope of PAM site recognition, the applicant engineered xCas12i protein via mutagenesis and screened for mutants with various dsDNA cleavage activity and broader PAM using a dual plasmid fluorescent reporter system similar to the dual plasmid fluorescent reporter system in Example 1, except that the EGxxxxFP-targeting guide RNA (SEQ ID NO: 51; “crON/crRNA On-target”) coding sequence operably linked to U6 promoter was not located on the expression plasmid together with the xCas12i (or its mutant) coding sequence (SEQ ID NO: 31) but located on the reporter plasmid together with the BFP-P2A-EGxxxxFP coding sequence (SEQ ID NO: 41) (referring to “On-Target Reporter” in FIG. 1B). […] The applicant then individually transfected the expression plasmid and the reporter plasmid into HEK293T cells and analyzed them by FACS (FIG. 1B). […]

xCas12i-D892R (v4.3) = biological target: T2, xCas12i-D892R (v4.3) (D892R); assay: cell_activity; HEK293T EGFP reporter; conditions: tags: NLS
T2 chain: T1 chain with R875E, D892R
From the text: as §1

B1: crEGFP DR-T1 ; EGxxxxFP reporter target (ssRNA ; dsDNA)
RNA: AUGACUCAGAAAUGUGUCCCCAGUUGACACCCAUUACAGUAGGAGCAUAC
DNA 1: GGATCCGTGTCTTTCCCATTACAGTAGGAGCATACGGGAGACAAGCTTTG
DNA 2: CAAAGCTTGTCTCCCGTATGCTCCTACTGTAATGGGAAAGACACGGATCC
binding signal (xCas12i-E875R): 0.1 relative to WT | binding signal (xCas12i-D892R (v4.3)): 1.42 relative to WT
